Columns and labels:
SH-SY5Y cells = experiment: MTT assay of SH-SY5Y cells with ethacrynic acid challenge; format: cell-based, human; conditions: ethacrynic acid treatment compared with the control group
Description: Cell treatment and peptide blocking assay: Ethacrynic acid (EA) (Sigma, Saint Louis, MO) was dissolved in dimethyl sulfoxide (DMSO) at a stock concentration of 100 mM. For SH-SY5Y cells and HEK-293 cells, ethacrynic acid (EA) was added to the culture medium at 1:1000 to reach a final concentration of 100 μM. The treatment was maintained for 24 hours. For mouse cortical neurons, mature cortical neurons of 14 days in vitro (DIV) were used for experiments. Ethacrynic acid (EA) was added to neurons at a concentration of 20 μM for 5 hours. For peptide treatment in cell culture, the peptides were dissolved in double distilled water at a stock concentration of 10 mM and stored at −80° C. The combination of peptides A, B, C and D at equal concentration of 5 μM for each peptide and 20 μM in total was added into cultures of SH-SY5Y cells or HEK-293 cells one hour before ethacrynic acid treatment or pcDNA3.1-FLAG-CK1δ1-317 transfection. […]
MTT assay: The cell viability of SH-SY5Y cells after treatment of Ethacrynic acid (EA) was determined using the MTT assay (Sigma, Saint Louis, MO). Briefly, MTT solution was added to cells for 3-4 hours at 37° C. at the time when the cell viability was determined. […] On the second day, the plate was shaken for 15 minutes in the dark and absorbance at OD=595 nm was read using a plate reader (Envision 2103 Multilabel Reader, Perkin Elmer).

TDP-43 = TDP-43 (Homo sapiens, UniProt Q13148); experiment: Peptide blocking of TDP-43 phosphorylation and aggregation in HEK293 cells overexpressing pcDNA3.1-FLAG-CK1δ1-317 (western blotting); format: cell-based; parameters: Endogenous TDP-43 was highly phosphorylated by active CK-1δ (lacking its regulatory domain); endogenous in cells; host or cells: HEK293 cells transfected with pcDNA3.1-FLAG-CK1δ1-317; conditions: HEK293, CK1δ1-317 overexpression
Description: Cell treatment and peptide blocking assay: Ethacrynic acid (EA) (Sigma, Saint Louis, MO) was dissolved in dimethyl sulfoxide (DMSO) at a stock concentration of 100 mM. For SH-SY5Y cells and HEK-293 cells, ethacrynic acid (EA) was added to the culture medium at 1:1000 to reach a final concentration of 100 μM. The treatment was maintained for 24 hours. For mouse cortical neurons, mature cortical neurons of 14 days in vitro (DIV) were used for experiments. Ethacrynic acid (EA) was added to neurons at a concentration of 20 μM for 5 hours. For peptide treatment in cell culture, the peptides were dissolved in double distilled water at a stock concentration of 10 mM and stored at −80° C. […] The primary cultured neurons were treated with peptide A, B, C and D mixture (equal concentration for each) at a final concentration of 5 μM and 10 μM.
The plasmids were transfected into HEK293 or SH-SY5Y cells using the Lipofectamine 2000 system. Before transfection, cells were plated at 80˜90% confluence and cultured in DMEM containing 10% fetal bovine serum (FBS). […]
Fractionation of cellular soluble and insoluble proteins: Cells or spinal cord tissue were harvested and lysed in 500 μl RIPA buffer [50 mM Tris-HCl pH 7.4; 150 mM NaCl; 1% NP-40; 0.5% Na-deoxycholate; 1 mM EDTA; 50 mM NaF; 1 mM PMSF and protease inhibitor] on ice. […] All the protein samples were further analyzed by Western immunoblotting. […]

Sequence of TDP-43 (Q13148 whole entry, the tested form may be a part): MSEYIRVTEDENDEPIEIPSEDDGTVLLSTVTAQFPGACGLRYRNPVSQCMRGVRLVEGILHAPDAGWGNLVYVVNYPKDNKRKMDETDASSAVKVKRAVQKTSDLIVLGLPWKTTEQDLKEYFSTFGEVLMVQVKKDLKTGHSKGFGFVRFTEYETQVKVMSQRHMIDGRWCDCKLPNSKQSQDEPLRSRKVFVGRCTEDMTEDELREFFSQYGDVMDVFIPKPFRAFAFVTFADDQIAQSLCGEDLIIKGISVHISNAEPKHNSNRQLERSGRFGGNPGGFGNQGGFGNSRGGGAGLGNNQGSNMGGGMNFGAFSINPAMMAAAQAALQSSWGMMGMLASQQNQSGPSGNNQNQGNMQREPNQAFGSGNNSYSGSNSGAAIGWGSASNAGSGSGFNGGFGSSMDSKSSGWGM

Compound | cell death of SH-SY5Y cells (SH-SY5Y cells) [%] | TDP-43 phosphorylation in both the soluble fraction and insoluble fraction (TDP-43; 20 μM every 6 hours for a total of 48 hours) | TDP-43 aggregation induced by CK1δ (TDP-43; 40 μM every 6 hours for a total of 48 hours, compared with 20 μM)
C=C(CC)C(=O)c1ccc(OCC(=O)O)c(Cl)c1Cl [ethacrynic acid] | 69.97 | – | –
ppTDP: peptide covering the T25 site and S403 site of TDP-43, with a linker sequence between the blocking sequences and a TAT sequence (YGRKKRRQRRRDGTVLLGGGGFGSSMDSKSSG) | – | efficiently blocked | did not block TDP-43 aggregation induced by CK1δ more effectively

From patent US20250073303A1, “TDP-43 Interference Peptides, Methods, and Uses Thereof” (The University of British Columbia, priority 2022, published 2025)
